The text below walks through data of US20250163145A1 (SHIONOGI, published 2025).

For orientation: IC50 means the concentration at which inhibition is half-maximal.

The target of test [1] is T1, epitope peptide Cys-CE3C long (also: biotin label, site not given here).
T1 peptide: CSVNVDKQPKYEYSL
Put plainly: competitive ELISA, unlabeled vs biotin-labeled peptide, antibody on anti-human IgG plate. The procedure: A diluted solution of the obtained recombinant humanized antibody, a biotin-labeled immunogen peptide, and Streptavidin-HRP (manufactured by PIERCE) were added to an anti-human IgG antibody-immobilized plate, and reacted overnight at 4° C. […] Next, a recombinant human antibody at the dilution rate, a biotin-labeled immunogen peptide, and Streptavidin-HRP (manufactured by PIERCE) were added. At the same time, a dilution series of unlabeled immunogenic peptide was added and reacted overnight at 4° C. After washing twice with ELISA wash buffer, TMB-Substrate Chromogen (manufactured by Thermo Fisher Scientific) was added to develop color, the reaction was stopped with an equal amount of 0.5N sulfuric acid, and the absorbance at 450 nm was measured. The concentration of the unlabeled peptide which attenuated the signal of the biotin-labeled peptide by half was defined as the affinity (IC50).
(ELISA stands for enzyme-linked immunosorbent assay.)

The target of test [2] is T1, epitope peptide Cys-CE3C long. As to the kind of experiment: ELISA, supernatant IgG on anti-human IgG plate, biotin-peptide + streptavidin-HRP; titer per unit IgG. As to the method:
The amount of IgG in the supernatant was determined by the following method. To evaluate the amount of IgG in the supernatant, the culture supernatant was added to an anti-human IgG antibody (manufactured by Jackson) immobilized plate, after reacting at room temperature for 3 hours, washed twice with ELISA wash buffer, and HRP-labeled anti-human IgG antibody (manufactured by Jackson) was reacted at 4° C. overnight. After washing twice with ELISA wash buffer and developing color by adding TMB-Substrate Chromogen (manufactured by Thermo Fisher Scientific), the reaction was stopped with an equal volume of 0.5N sulfuric acid, and the absorbance at 450 nm was measured to calculate (A) the dilution factor of the culture supernatant at which the OD was 1.0.
The titer of IgG in the supernatant against the epitope peptide was determined by the following method. In order to evaluate the titer of IgG in the supernatant against epitope peptides, the culture supernatant was added to an anti-human IgG antibody (manufactured by Jackson) immobilized plate, reacted for 3 hours at room temperature, and then washed twice with ELISA wash buffer, and a biotin-labeled epitope peptide (Cys-CE3C long: SEQ ID NO: 13) and Streptavidin-HRP (manufactured by PIERCE) were added and reacted overnight at 4° C. After washing twice with ELISA wash buffer and developing color by adding TMB-Substrate Chromogen (manufactured by Thermo Fisher Scientific), the reaction was stopped with an equal volume of 0.5N sulfuric acid, the absorbance at 450 nm was measured to calculate (B) the dilution ratio of the culture supernatant at which the OD was 1.0.
The titer (ratio) against the epitope peptide (Cys-CE3C long: SEQ ID NO: 13) per unit IgG amount was calculated as (B)/(A).

Where no end group is shown, it is not given here.

B1: h15H11-40 (antibody, human IgG4 S228P, kappa, V domains shown)
VH: QVQLVQSGSELKKPGASVKVSCKASGYTFTDYNMHWVRQAPGRSLEWMGRINPKNGVINLNEKFKDRFVFSLDTSVSTAYLQISSLKAEDTAVYYCAPSYYGGNTDAYWGQGTLVTVSS
VL: DIVLTQSPASLAVSPGQRATITCRVSDSVDNYGISFLNWFQQKPGQPPKLLIYAASSQGSGVPARFSGSGSGTDFTLTINPMEANDTANYYCQQSKEFPWTFGGGTKVEIKR
notes: hIgG4Pro/hIgK
As to B1, the IC50 in test [1] worked out at 1.06 nM.

B2: h15H11-41 (antibody, human IgG4 S228P, kappa, V domains shown)
VH: QVQLVQSGSELKKPGASVKVSCKASGYTFTDYNMHWVRQAPGRSLEWMGRINPKNGVINSNEKFKDRFVFSLDTSVSTAYLQISSLKAEDTAVYYCAPSYFGGNSDAYWGQGTLVTVSS
VL: DIVLTQSPASLAVSPGQRATITCRASDSVDNYGISFLNWFQQKPGQPPKLLIYAASSQGSGVPARFSGSGSGTDFTLTINPMEANDTANYYCQQSKEFPWTFGGGTKVEIKR
notes: hIgG4Pro/hIgK
Consider B2, for which the half-inhibitory concentration (IC50) in test [1] amounted to 1.07 nM.

B3: humanized 15H11 CDR graft IGKV7-3 / IGHV7-4-1 (R94P) (antibody, human IgG4 S228P, kappa, V domains shown)
VH: QVQLVQSGSELKKPGASVKVSCKASGYTFTDYNMHWVRQAPGQGLEWMGRINPKNGVINSNEKFKDRFVFSLDTSVSTAYLQISSLKAEDTAVYYCAPSYYGGNTDAYWGQGTLVTVSS
VL: DIVLTQSPASLAVSPGQRATITCRASESVDNYGISFMNWYQQKPGQPPKLLIYAASSQGSGVPARFSGSGSGTDFTLTINPVEANDTANYYCQQSKEFPWTFGGGTKVEIKR
notes: hIgG4Pro/hIgK
For the molecule B3, the “(B)/(A) titer (ratio) against the epitope peptide per unit IgG amount” value (“(B)/(A) titer (ratio) … per unit IgG amount” below) in test [2] came to 0.26.

B4: h15H11-42 (antibody, human IgG4 S228P, kappa, V domains shown)
VH: QVQLVQSGSELKKPGASVKVSCKASGYTFTDYNMHWVRQAPGRSLEWMGRINPKNGVINSNEKFKDRFVFSLDTSVSTAYLQISSLKAEDTAVYYCAPSYYGGKTDAYWGQGTLVTVSS
VL: DIVLTQSPASLAVSPGQRATITCRASESVDNYGISFMNWFQQKPGQPPKLLIYAASSQGSGVPARFSGSGSGTDFTLTINPMEANDTANYYCQQSKEFPWTFGGGTKVEIKR
notes: hIgG4Pro/hIgK
Consider B4, for which, in test [1], the concentration for half-maximal inhibition (IC50) was found to be 0.83 nM.

B5: h15H11-43 (antibody, human IgG4 S228P, kappa, V domains shown)
VH: QVQLVQSGSELKKPGASVKVSCKASGYTFTDYNMHWVRQAPGRSLEWMGRINPKNGVINSNEKFKDRFVFSLDTSVSTAYLQISSLKAEDTAVYYCAPSYYGGNTDAYWGQGTLVTVSS
VL: DIVLTQSPASLAVSPGQRATITCRASESVDNYGFSFMNWFQQKPGQPPKLLIYAASSQGSGVPARFSGSGSGTDFTLTINPMEANDTANYYCQQSKEFPWTFGGGTKVEIKR
notes: hIgG4Pro/hIgK
Consider B5, for which the 50% inhibitory concentration (IC50) in test [1] came out at 0.83 nM.

B6: humanized 15H11 CDR graft IGKV1-39 / IGHV1-2 (R94P) (antibody, human IgG4 S228P, kappa, V domains shown)
VH: QVQLVQSGAEVKKPGASVKVSCKASGYTFTDYNMHWVRQAPGQGLEWMGRINPKNGVINSNEKFKDRVTMTRDTSISTAYMELSRLRSDDTAVYYCAPSYYGGNTDAYWGQGTLVTVSS
VL: DIQMTQSPSSLSASVGDRVTITCRASESVDNYGISFMNWYQQKPGKAPKLLIYAASSQGSGVPSRFSGSGSGTDFTLTISSLQPEDFATYYCQQSKEFPWTFGGGTKVEIKR
notes: hIgG4Pro/hIgK
Turning to B6, the “(B)/(A) titer (ratio) … per unit IgG amount” value in test [2] was 0.14.

B7: humanized 15H11 CDR graft IGKV1-39 / IGHV7-4-1 (R94P) (antibody, human IgG4 S228P, kappa, V domains shown)
VH: QVQLVQSGSELKKPGASVKVSCKASGYTFTDYNMHWVRQAPGQGLEWMGRINPKNGVINSNEKFKDRFVFSLDTSVSTAYLQISSLKAEDTAVYYCAPSYYGGNTDAYWGQGTLVTVSS
VL: DIQMTQSPSSLSASVGDRVTITCRASESVDNYGISFMNWYQQKPGKAPKLLIYAASSQGSGVPSRFSGSGSGTDFTLTISSLQPEDFATYYCQQSKEFPWTFGGGTKVEIKR
notes: hIgG4Pro/hIgK
For the molecule B7, in test [2], the “(B)/(A) titer (ratio) … per unit IgG amount” value amounted to 0.16.

B8: humanized 15H11 CDR graft IGKV3-11 / IGHV1-2 (R94P) (antibody, human IgG4 S228P, kappa, V domains shown)
VH: QVQLVQSGAEVKKPGASVKVSCKASGYTFTDYNMHWVRQAPGQGLEWMGRINPKNGVINSNEKFKDRVTMTRDTSISTAYMELSRLRSDDTAVYYCAPSYYGGNTDAYWGQGTLVTVSS
VL: EIVLTQSPATLSLSPGERATLSCRASESVDNYGISFMNWYQQKPGQAPRLLIYAASSQGSGIPARFSGSGSGTDFTLTISSLEPEDFAVYYCQQSKEFPWTFGGGTKVEIKR
notes: hIgG4Pro/hIgK
As to B8, in test [2], the “(B)/(A) titer (ratio) … per unit IgG amount” value worked out at 0.15.

B9: humanized 15H11 CDR graft IGKV3-11 / IGHV1-18 (R94P) (antibody, human IgG4 S228P, kappa, V domains shown)
VH: QVQLVQSGAEVKKPGASVKVSCKASGYTFTDYNMHWVRQAPGQGLEWMGRINPKNGVINSNEKFKDRVTMTTDTSTSTAYMELRSLRSDDTAVYYCAPSYYGGNTDAYWGQGTLVTVSS
VL: EIVLTQSPATLSLSPGERATLSCRASESVDNYGISFMNWYQQKPGQAPRLLIYAASSQGSGIPARFSGSGSGTDFTLTISSLEPEDFAVYYCQQSKEFPWTFGGGTKVEIKR
notes: hIgG4Pro/hIgK
For the molecule B9, the “(B)/(A) titer (ratio) … per unit IgG amount” value in test [2] was 0.15.

B10: humanized 15H11 CDR graft IGKV3-11 / IGHV1-2 (antibody, human IgG4 S228P, kappa, V domains shown)
VH: QVQLVQSGAEVKKPGASVKVSCKASGYTFTDYNMHWVRQAPGQGLEWMGRINPKNGVINSNEKFKDRVTMTRDTSISTAYMELSRLRSDDTAVYYCARSYYGGNTDAYWGQGTLVTVSS
VL: EIVLTQSPATLSLSPGERATLSCRASESVDNYGISFMNWYQQKPGQAPRLLIYAASSQGSGIPARFSGSGSGTDFTLTISSLEPEDFAVYYCQQSKEFPWTFGGGTKVEIKR
notes: hIgG4Pro/hIgK
B10: the “(B)/(A) titer (ratio) … per unit IgG amount” value in test [2] came out at 0.05.

B11: humanized 15H11 CDR graft IGKV1-39 / IGHV1-18 (R94P) (antibody, human IgG4 S228P, kappa, V domains shown)
VH: QVQLVQSGAEVKKPGASVKVSCKASGYTFTDYNMHWVRQAPGQGLEWMGRINPKNGVINSNEKFKDRVTMTTDTSTSTAYMELRSLRSDDTAVYYCAPSYYGGNTDAYWGQGTLVTVSS
VL: DIQMTQSPSSLSASVGDRVTITCRASESVDNYGISFMNWYQQKPGKAPKLLIYAASSQGSGVPSRFSGSGSGTDFTLTISSLQPEDFATYYCQQSKEFPWTFGGGTKVEIKR
notes: hIgG4Pro/hIgK
Regarding B11, in test [2], the “(B)/(A) titer (ratio) … per unit IgG amount” value worked out at 0.13.

B12: humanized 15H11 CDR graft IGKV1-39 / IGHV1-46 (R94P) (antibody, human IgG4 S228P, kappa, V domains shown)
VH: QVQLVQSGAEVKKPGASVKVSCKASGYTFTDYNMHWVRQAPGQGLEWMGRINPKNGVINSNEKFKDRVTMTRDTSTSTVYMELSSLRSEDTAVYYCAPSYYGGNTDAYWGQGTLVTVSS
VL: DIQMTQSPSSLSASVGDRVTITCRASESVDNYGISFMNWYQQKPGKAPKLLIYAASSQGSGVPSRFSGSGSGTDFTLTISSLQPEDFATYYCQQSKEFPWTFGGGTKVEIKR
notes: hIgG4Pro/hIgK
On to B12, for which, in test [2], the “(B)/(A) titer (ratio) … per unit IgG amount” value came out at 0.09.

B13: humanized 15H11 CDR graft IGKV3-11 / IGHV1-3 (R94P) (antibody, human IgG4 S228P, kappa, V domains shown)
VH: QVQLVQSGAEVKKPGASVKVSCKASGYTFTDYNMHWVRQAPGQRLEWMGRINPKNGVINSNEKFKDRVTITRDTSASTAYMELSSLRSEDTAVYYCAPSYYGGNTDAYWGQGTLVTVSS
VL: EIVLTQSPATLSLSPGERATLSCRASESVDNYGISFMNWYQQKPGQAPRLLIYAASSQGSGIPARFSGSGSGTDFTLTISSLEPEDFAVYYCQQSKEFPWTFGGGTKVEIKR
notes: hIgG4Pro/hIgK
In the case of B13, the “(B)/(A) titer (ratio) … per unit IgG amount” value in test [2] is 0.12.

B14: humanized 15H11 CDR graft IGKV1-39 / IGHV1-2 (antibody, human IgG4 S228P, kappa, V domains shown)
VH: QVQLVQSGAEVKKPGASVKVSCKASGYTFTDYNMHWVRQAPGQGLEWMGRINPKNGVINSNEKFKDRVTMTRDTSISTAYMELSRLRSDDTAVYYCARSYYGGNTDAYWGQGTLVTVSS
VL: DIQMTQSPSSLSASVGDRVTITCRASESVDNYGISFMNWYQQKPGKAPKLLIYAASSQGSGVPSRFSGSGSGTDFTLTISSLQPEDFATYYCQQSKEFPWTFGGGTKVEIKR
notes: hIgG4Pro/hIgK
As to B14, the “(B)/(A) titer (ratio) … per unit IgG amount” value in test [2] turned out to be 0.03.

B15: humanized 15H11 CDR graft IGKV1-39 / IGHV1-3 (R94P) (antibody, human IgG4 S228P, kappa, V domains shown)
VH: QVQLVQSGAEVKKPGASVKVSCKASGYTFTDYNMHWVRQAPGQRLEWMGRINPKNGVINSNEKFKDRVTITRDTSASTAYMELSSLRSEDTAVYYCAPSYYGGNTDAYWGQGTLVTVSS
VL: DIQMTQSPSSLSASVGDRVTITCRASESVDNYGISFMNWYQQKPGKAPKLLIYAASSQGSGVPSRFSGSGSGTDFTLTISSLQPEDFATYYCQQSKEFPWTFGGGTKVEIKR
notes: hIgG4Pro/hIgK
With B15, in test [2], the “(B)/(A) titer (ratio) … per unit IgG amount” value is 0.12.
